Results on seven molecules are retold here after patent publication US20210101998A1.

Positions count from the first letter of the chain named. Like-named read-outs stand apart in the source and are kept apart here.

In assay [1] the target is endogenous TFPI in human plasma (human), P10646. As to the kind of experiment: cell-based or functional assay.
The target is the same in assay [2]. As to the kind of experiment: cell-based or functional assay. This is another data set of the same source.

B1: 4D8.b1 (antibody, mouse IgG1, kappa)
light: DIVMTQSHKFMSTSVGDRVSITCKASQDVHTAVAWYQQKPGQSPRLLIYWASTRHTGVPDRFTGCGSGTDYTLTISSVQAEDLALYYCQQHYTTPYTFGGGTKLEMKADAAPTVSIFPPSSEQLTSGGASVVCFLNNFYPKDINVKWKIDGSERQNGVLNSWTDQDSKDSTYSMSSTLTLTKDEYERHNSYTCEATHKTSTSPIVKSFNRNEC
heavy: EVLLQQSGPELVKPGASVKIPCKASGYTFTDYNLDWVKQSHGKSLEWIGDINPINGATLYNQKFKGKATLTVDQSSSTAYMELRSLTSEDTAVYYCSIYYGDYDAMDYWGQGASVTVSSAKTTPPSVYPLAPGSAAQTNSMVTLGCLVKGYFPEPVTVTWNSGSLSSGVHTFPAVLQSDLYTLSSSVTVPSSTWPSETVTCNVAHPASSTKVDKKIVPRDCGCKPCICTVPEVSSVFIFPPKPKDVLTITLTPKVTCVVVDISKDDPEVQFSWFVDDVEVHTAQTQPREEQFNSTFRSVSELPIMHQDWLNGKEFKCRVNSAAFPAPIEKTISKTKGRPKAPQVYTIPPPKEQMAKDKVSLTCMITDFFPEDITVEWQWNGQPAENYKNTQPIMDTDGSYFVYSKLNVQKSNWEAGNTFTCSVLHEGLHNHHTEKSLSHSPGK
Consider B1, for which the TGA Velocity Index at 20 nM is 13.5 in assay [1] and 26.3 in assay [2].

B2: 6B7.c5 (antibody, mouse IgG1, kappa)
light: B1 light with H30I, R45K, D60V, C65S, S76I, T93S, M106I
heavy: EVLLQQSGPELVKPGSSVKIPCKASGYTFTDYTMDWVKQSHGKSLEWIGDINPSNGGSIYNRKFKGKATLTVDKSSSTAYMELRSLTSEDTAVYYCARMHYNYDGFPYWGQGTLVTVSAAKTTPPSVYPLAPGSAAQTNSMVTLGCLVKGYFPEPVTVTWNSGSLSSGVHTFPAVLQSDLYTLSSSVTVPSSTWPSETVTCNVAHPASSTKVDKKIVPRDCGCKPCICTVPEVSSVFIFPPKPKDVLTITLTPKVTCVVVDISKDDPEVQFSWFVDDVEVHTAQTQPREEQFNSTFRSVSELPIMHQDWLNGKEFKCRVNSAAFPAPIEKTISKTKGRPKAPQVYTIPPPKEQMAKDKVSLTCMITDFFPEDITVEWQWNGQPAENYKNTQPIMDTDGSYFVYSKLNVQKSNWEAGNTFTCSVLHEGLHNHHTEKSLSHSPGK
B2 displayed a TGA Velocity Index at 20 nM in assay [2] of 23.5.

B3: 7A4.D9 (antibody, mouse IgG1, kappa)
light: DIVLTQSPASLAVSLGQRATISCRASKSVSTSGYTYMHWYQQKPGQPPKLLIYLASNLESGVPARFSGSGSGTDFTLNIHPVEEEDAAAYYCQHIRELPFTFGSGTKLEIKADAAPTVSIFPPSSEQLTSGGASVVCFLNNFYPKDINVKWKIDGSERQNGVLNSWTDQDSKDSTYSMSSTLTLTKDEYERHNSYTCEATHKTSTSPIVKSFNRNEC
heavy: EVQLQQSGPELVKPGASVKMSCKASGYTFTSYVMHWVKQKPGQGLEWIGYLNPYNDGTKYNEKFKGKASLISDKSSSTVYMELSSLTSEDSAVYYCATTLLYAMDYWGQGSSVTVSSAKTTPPSVYPLAPGSAAQTNSMVTLGCLVKGYFPEPVTVTWNSGSLSSGVHTFPAVLQSDLYTLSSSVTVPSSTWPSETVTCNVAHPASSTKVDKKIVPRDCGCKPCICTVPEVSSVFIFPPKPKDVLTITLTPKVTCVVVDISKDDPEVQFSWFVDDVEVHTAQTQPREEQFNSTFRSVSELPIMHQDWLNGKEFKCRVNSAAFPAPIEKTISKTKGRPKAPQVYTIPPPKEQMAKDKVSLTCMITDFFPEDITVEWQWNGQPAENYKNTQPIMDTDGSYFVYSKLNVQKSNWEAGNTFTCSVLHEGLHNHHTEKSLSHSPGK
In assay [2], B3 returned a TGA Velocity Index at 20 nM of 23.3.

B4: 2A8-200 (antibody, human IgG1, lambda)
light: DIELTQPPSVSVAPGQTARISCSGDNLRNYYAHWYQQKPGQAPVVVIFYDVNRPSGIPERFSGSNSGNTATLTISGTQAEDEADYYCQSWWDGVPVFGGGTKLTVLGQPKAAPSVTLFPPSSEELQANKATLVCLISDFYPGAVTVAWKADSSPVKAGVETTTPSKQSNNKYAASSYLSLTPEQWKSHRSYSCQVTHEGSTVEKTVAPTECS
heavy: QVQLVESGGGLVQPGGSLRLSCAASGFTFRSYGMDWVRQAPGKGLEWVSSIRGSRSSTYYADSVKGRFTISRDNSKNTLYLQMNSLRAEDTAVYYCARLYRYWFDYWGQGTLVTVSSASTKGPSVFPLAPSSKSTSGGTAALGCLVKDYFPEPVTVSWNSGALTSGVHTFPAVLQSSGLYSLSSVVTVPSSSLGTQTYICNVNHKPSNTKVDKKVEPKSCDKTHTCPPCPAPEAAGAPSVFLFPPKPKDTLMISRTPEVTCVVVDVSHEDPEVKFNWYVDGVEVHNAKTKPREEQYNSTYRVVSVLTVLHQDWLNGKEYKCKVSNKALPAPIEKTISKAKGQPREPQVYTLPPSREEMTKNQVSLTCLVKGFYPSDIAVEWESNGQPENNYKTTPPVLDSDGSFFLYSKLTVDKSRWQQGNVFSCSVMHEALHNHYTQKSLSLSPG
On to B4, for which the Dilute PT EC50 in assay [1] is 1 nM.

B5: TFPI-24 (antibody, human IgG1, lambda)
light: not shown
heavy: EVQLVESGGGSVQPGRSLRLSCAVSGLTIDNYAMQWVRQRPGKGLEWVSGISGNSRSIGYADSVKGRLTISRDNAKNSLYLQIDSLRADDTALYYCAIFLHESDYWGQGTLVTVSSASTKGPSVFPLAPSSKSTSGGTAALGCLVKDYFPEPVTVSWNSGALTSGVHTFPAVLQSSGLYSLSSVVTVPSSSLGTQTYICNVNHKPSNTKVDKKVEPKSCDKTHTCPPCPAPEAAGAPSVFLFPPKPKDTLMISRTPEVTCVVVDVSHEDPEVKFNWYVDGVEVHNAKTKPREEQYNSTYRVVSVLTVLHQDWLNGKEYKCKVSNKALPAPIEKTISKAKGQPREPQVYTLPPSREEMTKNQVSLTCLVKGFYPSDIAVEWESNGQPENNYKTTPPVLDSDGSFFLYSKLTVDKSRWQQGNVFSCSVMHEALHNHYTQKSLSLSPG
Turning to B5, in assay [1], the TGA Velocity Index at 20 nM was 23.2 and the dilute prothrombin time EC50 worked out at 0.57 nM.

B6: TFPI-118 (antibody, human IgG1, lambda)
light: not shown
heavy: B5 heavy with S11L, R40A, L68F, I83M, D84N, D89E
In assay [1], B6 showed a Dilute PT EC50 of 1.16 nM, a TGA Velocity EC50 of 7.72 nM and a dilute prothrombin time EC50 of 1.16 nM.

B7: hz4D8 (antibody, human IgG1, kappa)
light: DIQMTQSPSSLSASVGDRVTITCKASQDVHTAVAWYQQKPGKAPKLLIYWASTRHTGVPSRFSGSGSGTDYTLTISSLQPEDFATYYCQQHYTTPYTFGQGTKLEIKRTVAAPSVFIFPPSDEQLKSGTASVVCLLNNFYPREAKVQWKVDNALQSGNSQESVTEQDSKDSTYSLSSTLTLSKADYEKHKVYACEVTHQGLSSPVTKSFNRGEC
heavy: EVQLVESGGGLVQPGGSLRLSCAASGYTFTDYNLDWVRQAPGKGLEWVADINPINGATLYNQKFKGRFTISRDQAKNSLYLQMNSLRAEDTAVYYCARYYGDYDAMDYWGQGTLVTVSSASTKGPSVFPLAPSSKSTSGGTAALGCLVKDYFPEPVTVSWNSGALTSGVHTFPAVLQSSGLYSLSSVVTVPSSSLGTQTYICNVNHKPSNTKVDKKVEPKSCDKTHTCPPCPAPEAAGAPSVFLFPPKPKDTLMISRTPEVTCVVVDVSHEDPEVKFNWYVDGVEVHNAKTKPREEQYNSTYRVVSVLTVLHQDWLNGKEYKCKVSNKALPAPIEKTISKAKGQPREPQVYTLPPSREEMTKNQVSLTCLVKGFYPSDIAVEWESNGQPENNYKTTPPVLDSDGSFFLYSKLTVDKSRWQQGNVFSCSVMHEALHNHYTQKSLSLSPG
Consider B7, for which, in assay [1], the Dilute PT EC50 worked out at 0.47 nM, the TGA Velocity EC50 was 3.9 nM, the TGA Velocity Index at 20 nM turned out to be 15.7 and the dilute prothrombin time EC50 was 0.47 nM.
